The nanobody polyreactivity screen of Harvey et al. (2022)

Test: yeast display, Sf9 membrane polyspecificity reagent, FACS + sequencing; frameworks hold sequencing errors
Method in brief: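 Nanobodies came from a synthetic yeast display library in Saccharomyces cerevisiae BJ5465, induced with galactose for 36–48 hours and stained for 1 hour at 4 °C with 10% biotinylated, detergent-solubilized Sf9 membrane reagent. Cells were enriched on streptavidin microbeads and then FACS-sorted, with low and high (top ~1%) gates set on anti-HA fluorescence for expression and streptavidin fluorescence for reagent binding. Each polyreactivity label reflects the gate a clone came from. Genes were amplified by colony PCR, sequenced by MiSeq 2 × 250 and filtered by CDR length.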

Sequence	polyreactivity (PSR sort gate)
QVQLQESGGGLEQAGGSLRPSCAASGSISDGVPMGWYRQAPGEERELVATTVLGATTNYADSVKGRFTISRGNAKNTVYLQMNSLKPEETAVYYCAAPLRYDKGFSYWGQGTQVTVSS	low polyreactivity
QVQLQESGGGLMQAGGNLRLSCAASGYISTHYDMDWYRQAPGKERELVARIDDGAITNYADSVKGRFTISRDNAKKTVYLQMNSLKPEDTAVYYCAVYYGDEYYHDYWGQGTQVTVSS	low polyreactivity
QVQLQESGGGLMQAGGSQRLSCAARGSISYYSDMGWYLQAPGKEREFVAGIGYGTTTNYADSVKGRFTTSRDNAKNTVYLQMISMKPEDTAVYYCAAYQGNGYEFYYWGQGTQVTVRS	low polyreactivity
QVQLQESGGGLMQAGGSQRLSCAASGSISYYSDMGWYRQAPGKEREFVAGIGYGTTTNYADSVKGRFTTSRDNAKNTVYLQMISMKPEDSAVYYCAAYQGNGYEFYYWGQGTQVTVRS	low polyreactivity
QVQLQESGGGLVKAGGSLRLSCAASGNISNHNDMGWYRQAPGKESEFVAGITAGGITNYADSVKGRFTISRDNAKNTVYLQMNSLKPEDTAVYYCAAYPDYAKSYGYWGQGTQATVSS	low polyreactivity
QVQLQESGGGLVLAGGSLRLSCSASGNISVYGSMGWYRQAPGKEREFVATIAPGTNTNYADSVKDRFTISRDNAKNTVYLQMNSLKPEDTAVYYCAARHPSSAYWVGYYWYDYWGQGTQVTVSS	low polyreactivity
QVQLQESGGGLVLAGGSLRLSCSASGNISVYGSMGWYRQAPGKEREFVATIDPGTNTNYADSMKDRFTISRDNAKNTVYLQMNSLKPEDTAVYYCAVEAGSDWPYRYWGQGTQVTVSS	low polyreactivity
QVQLQESGGGLVQACGSLRLSCAASGYISHADEMGWYRQAPGKEHELVASISNGGSTNYADSVKGRFTMSRDNAKNTVYLQMNSLKSEDTAVYYCAAWTGQVDIHYYWGQGTKVTVSS	low polyreactivity
QVQLQESGGGLVQAGDSQRLSCAASGNSFRFTHMGWYRQAPGKERELVAASNAGSTTYYADSVKGRFTISRDNAKNTVYLQMKSLKPEDTAVYYCAVYYLGSGTFGYWGQGAQVTVSS	high polyreactivity
QVQLQESGGGLVQAGGCLRLSCAASGSIFTYAVMGWYRQAHGKEHELVATIDTGSSTYYADSVKGRITISRDNAKNTLYLQMNSLKPEDTAVYYCAVNTYCRVRYRYWGQGTQVTVSS	high polyreactivity
QVQLQESGGGLVQAGGDLRLSCEASGNIFRDYIMGWYRQAPGKEREFVAGIDRGANTNYADSVKGRFTISRDNAKNTVYLQMNSLQPEDTAVYYCAVHTAIVPDFIYWGQGTQVTVRS	low polyreactivity
QVQLQESGGGLVQAGGSLGCAASCNISTRSEMGWYRQAPGKEREFVATINSGGITNYADSLKGRFTISRDNAKNTVYLRKNSLKAEVTAVYYRAVYGYFSYPYDYWGQGTQVSVSS	low polyreactivity
QVQLQESGGGLVQAGGSLGCAASGNISTRSEMGWYRQSPGKEREFVATINSGGITNYADSVKGRFTISRDNAKNTVYLRMNSLKPEDTAVYYRAVYGYFSDPYDYWGQGTQVTVSS	low polyreactivity
QVQLQESGGGLVQAGGSLLLSCAASGSISGPHVMGWYRQAPGKEREFVAAINVGANTYYADNVKGRFTISRDNAKNTVYLQMNSLKPEDTAVYYCAAVYYGDIGHEYWGQGTQVTVSC	low polyreactivity
QVQLQESGGGLVQAGGSLLSCAASGTISYYREMGWYRQAPGKERELVAGIGVGTITYYADSVKGRFTISRDNAKHTVYLQMNSLKPEDTAVYYCAAAYQEYDYHYYYWGQGTQVTVSS	low polyreactivity
QVQLQESGGGLVQAGGSLPLSCAASGTISVHATMGWYRQATGKERELVAGITDGANTYYADSVKGRFTISRDNSQNTVYLQMNSLTPEDTAVYYCAAYYGTVVHFTYWGQGTQVTVSS	low polyreactivity
QVQLQESGGGLVQAGGSLRCAASGNISTRSEMGWYRQAPGKEREFVATINSGGITNYADSVKGRFTISRDNAKNTVYLRMNCLKPEDTAVYYRAVYGYFSDPYDYWGQGTQVTVSS	low polyreactivity
QVQLQESGGGLVQAGGSLRLICAASGTIFRFRYMGWHRQAPGKERELVAGINGGTTTYYADSVIGRFTISRDNAKNTVYVQMNSLKPDDTAVYNCAAGASRLTYYDYWGHGTQVTVSS	low polyreactivity
QVQLQESGGGLVQAGGSLRLSCAACGNIFKYTNMGSYRQAPGKERELVATISDGASTNYADSVKGRFTISRDNAINTVYLQMNSLKPEDTAVYYCNAEGYVRFNYWGQCTQVTVSS	high polyreactivity
QVQLQESGGGLVQAGGSLRLSCAASCTISQEDWMGWYRQAPGKELEFVAAIGLGSNTNYADSLKGRFTISRDNAKNTVYLQMNSLKPEDTAVYYCAVSVWQYSDHVYRGQGTQVTVSS	low polyreactivity
QVQLQESGGGLVQAGGSLRLSCAASGCISVYTPMGWYRQAPGKERVLVAGINICANTYYADSVKGRFTISRDNAKNTLYLQMNSLKPEDTAVYYCAARRRPGGRYKSRVWYDYWGQGTQVTVSS	high polyreactivity

Sequence	polyreactivity (PSR sort gate)
QVQLQESGGGLVQAGGSLRLSCAASGIIVDADIMGWYRQAPGQERDLVASITDGGRTNYADSVKGRFTISRDNAKNTVYLQMNSLKPEDTAVYYCAAIAYPDIPTYFDYDSEYFYCGQGTQVTVSS	low polyreactivity
QVQLQESGGGLVQAGGSLRLSCAASGNIFLSIFMGWYRQAPGKEREFVAGIGSGTNTNYADSVKGRFTISRDNAKNTVYLQMNSLKAEDTAGYYSAAGRYGLYYHGYWGQGTQVTVSS	high polyreactivity
QVQLQESGGGLVQAGGSLRLSCAASGNISVTGIMGWYRQAPGKERELVASIGIGGTTYYADSVNGRFSISRDNAKNTVYLQMISLKPEDTALYYLAARYLYYAYSYWGQGTQVTVSS	low polyreactivity
QVQLQESGGGLVQAGGSLRLSCAASGNISYRTHMGWYRQAPGKERELVASIGGGTTNYADSVKGRFTISRDNAKNTVYLQMNSLKPEDTAVYYCAVVGTTQFRHRYWGQGTQVTASS	high polyreactivity
QVQLQESGGGLVQAGGSLRLSCAASGNIVDADIMGWYRQAPGKEREIVASITDGGSTNYADSLKGRFTISRDNAKNTVYQQMNSLIPEDTAVYYCAAIAYPDIPPYFDYDSDYFDWGQGTQETVSS	high polyreactivity
QVQLQESGGGLVQAGGSLRLSCAASGNIVDADIMGWYRQAPGKERELVASITDGGSTNYADSVKGRFTISRDNAKNTVYLQMNSLKPVDTAVYNCAAIAYPDIPTYFDYDSEYFYWGQGTQVTVSS	low polyreactivity
QVQLQESGGGLVQAGGSLRLSCAASGPISRRSTMGWYRQAPGKERELVTAITRGTNTNYADSVKGRFTISRDNAKNTESLQMNSLKPEDTAVYYGAAYGVLKPSRGDAVFHRYWGQGTQVTVSS	low polyreactivity
QVQLQESGGGLVQAGGSLRLSCAASGPISRRSTMGWYRQAPGKERELVTAITRGTNTNYADSVKGRFTISRDNAKNTEYLQMNSLKPEDTAVFYCAAYGVLKPSRGDAVFHRYWGQGTQVTVSS	low polyreactivity
QVQLQESGGGLVQAGGSLRLSCAASGSIFDGFNMGWYRQAPGKERECVAAISYGASTYYADSVKGRFTGSRDNAKNSVYLQMNSLKPEDTAVYYCAVYDELYHVLVYWGRGTQVTVSS	low polyreactivity
QVQLQESGGGLVQAGGSLRLSCAASGSIFHLHIMSWYRHAPGKERESVAAISYGTSTYYADSVKCRFTICRDNAKNTVYLQINIPKPDDTAVYYCAALFLVSKHHHYWGEGTQVTVSS	low polyreactivity
QVQLQESGGGLVQAGGSLRLSCAASGSIFLFYTMGCYRPAPVKEREFVAGITLGTTTYNADSVKGRFTISRDNVKNTVYLQMNSLNPVDSAVYYCAVAVGHYTEFWYWGQGTQVTMSS	high polyreactivity
QVQLQESGGGLVQAGGSLRLSCAASGSIFQYGYMGWYRQAPGKEREFVAGIGGGTSNYADSVKGRFTISRDNAKNTVYLQMNSLKPEDTAVYYCNTDAGDYYGENYWGQGTQVTVSS	low polyreactivity
QVQLQESGGGLVQAGGSLRLSCAASGSIFTQATMGWYRQAPGKERELVAAINFGSSTYYADSVKGRFTISRDNAKSTVYLQMNSLKPEDTAVYYCAVRALWYDFHDYWGQGTQVTVSS	high polyreactivity
QVQLQESGGGLVQAGGSLRLSCAASGSISHYIFMGWYRQAPGKEREFVAGIGYGGTTNYADSVKGRFTISRDNAKNTVYLQMNSLKPEDTAVYYCAAVSIYWGQGTQVTVSS	low polyreactivity
QVQLQESGGGLVQAGGSLRLSCAASGSISHYIFRGWYRQAPGKEPEFVAGIGYGGTTNYADSVKGRFTISRDNAKNTVYLQMNSLKPEDTAMYYCAAREATEFYLYYWGQGTQVTVIS	low polyreactivity
QVQLQESGGGLVQAGGSLRLSCAASGSISNSAAMAWYRQAPGKERELVVSIGHGASSNYADSVKGRFTISRDNAKNTVYLQMNSLKPEDTAVYYCAAYPGFLDGFFYWGQSTQVTVSS	high polyreactivity
QVQLQESGGGLVQAGGSLRLSCAASGSITRYYDMGWYRQAPGKEREFVAGISGGAITYYADSLKGRFTISRDNAKNTVYLQMNSLKPEDTAVYYCAADTGVYQYHSYWGQGTQVTVSS	low polyreactivity
QVQLQESGGGLVQAGGSLRLSCAASGSNSILQSMGWYRQAPGKERELVAGINWGATTYYADSVKGRLTTSRDYAKNSVYLQMNSLKPEDTAVYFCAVPTYYTYPLLYWGQGTQVTVSS	low polyreactivity
QVQLQESGGGLVQAGGSLRLSCAASGSNSILQSMGWYRQAPRKERELVAGINWGATTYYADSVKGRLTTSRDYAINTVYLQMNSLKPEATAVYYCAVPTYYTYPLLYWGQGTQVTVSS	low polyreactivity
QVQLQESGGGLVQAGGSLRLSCAASGTIFRFRYMGWHRQAPVKERELVAGINGGTTTYYADSVIGRFTISRDNAKNTVYLQMNSLKADDTAVYNCAAGASRLTYYDYWGQGTQVTVSS	low polyreactivity
